Laboratory results reported in patent US12203932B2, “Genetically encoded biosensors” (Howard Hughes Medical Institute, priority 2011, dated 2025).
One block for each molecule: values may come before it.

How the values were obtained:
[1] = Fluorescence response and titration of soluble EcYbeJ253-cpGFP sensors with glutamate; type: binding; settings: soluble protein; read-out: Kd (affinity) for glutamate
Protocol: Several thousand variants were screened in semi-high-throughput fashion, measuring fluorescence intensity of clarified cell lysate in the absence and presence of 10 mM glutamate.

[2] = Thermal stability by circular dichroism (CD) of MBPs and MBP-cpGFP sensors; type: physicochemical; settings: CD signal vs temperature
Protocol: Thermal stability of PfMBP171-cpGFP.L2FE was measured using circular-dichroism (CD) and compared to the original EcMBP and PfMBP binding proteins, along with cpGFP. Following the changes by means of CD allowed determination of whether different transitions happened in alpha, beta, or both kinds of structures.
Given that cpGFP is a beta barrel, strong transitions in the beta signal alone were associated with changes in this kind of structure. In the same way, transitions in both kinds of signals were associated with the binding protein structure. […] Also, the addition of maltose to EcMBP stabilized the protein by about 10° C.

Kd [1]: ~1000 nM
B1: wild-type YbeJ: E. coli glutamate-binding protein; SEQ ID NO:107 (protein, listed as Escherichia coli)
chain: MNAKIIASLAFTSMFSLSTLLNPAYAEEQEKALNFGIISTESQQNLKPQWTPFLQDMEKKLGVKVNAFFAPDYAGIIQGMRFNKVDIAWYGNLSAMEAVDRANGQVFAQTVAADGSPGYWSVLIVNKDSPINNLNDLLAKRKDLTFGNGDPNSTSGFLVPGYYVFAKNNISASDFKRTVNAGHETNALAVANKQVDVATNNTENLDKLKTSAPEKLKELKVIWKSPLIPGDPIVWRKNLSETTKDKIYDFFMNYGKTPEEKAVLERLGWAPFRASSDLQLVPIRQLALFKEMQSVKDNKGLNEQDKLAKTTAIQAQLDDLDRLNNALSAMSSVSKAVQ

B2: PfMBP: Pyrococcus furiosus maltotriose binding protein; SEQ ID NO:106 (protein, listed as Pyrococcus furiosus)
chain: MRRATYAFALLAILVLGVVASGCIGGGTTTPTQTSPATQPTTTQTPTQTETQAVECGSGKVVIWHAMQPNELEVFQSLAEEYMALCPEVEIVFEQKPNLEDALKAAIPTGQGPDLFIWAHDWIGKFAEAGLLEPIDEYVTEDLLNEFAPMAQDAMQYKGHYYALPFAAETVAIIYNKEMVSEPPKTFDEMKAIMEKYYDPANEKYGIAWPINAYFISAIAQAFGGYYFDDKTEQPGLDKPETIEGFKFFFTEIWPYMAPTGDYNTQQSIFLEGRAPMMVNGPWSINDVKKAGINFGVVPLPPIIKDGKEYWPRPYGGVKLIYFAAGIKNKDAAWKFAKWLTTSEESIKTLALELGYIPVLTKVLDDPEIKNDPVIYGFGQAVQHAYLMPKSPKMSAVWGGVDGAINEILQDPQNADIEGILKKYQQEILNNMQG
denaturation temperature / Tm of binding protein (component) [2]: ≥ 80 °C
